By Kd is commonly meant the constant that tells how readily two partners part at equilibrium. High values mean weaker binding, low ones tighter binding.

Assay [1] has as its target PD-L1 on cells (UniProt Q9NZQ7). Put plainly: flow cytometry, T24 R-WT cells incubated first with Atezolizumab Fab (50 nM); Isotype Control-647 gives 480 [Cont.].
Assay [2] addresses EGFR (UniProt P00533). Put plainly: Fab KD, method not stated.
Assay [3] has as its target PD-L1 on cells (UniProt Q9NZQ7). Put plainly: flow cytometry, T24 R-WT cells incubated first with Atezolizumab Fab (50 nM); negative control [Cont.]. A general note: In flow cytometry, cells or beads pass a laser one at a time.

Chain of UniProt Q9NZQ7 (Q9NZQ7 19-290 limits assumed): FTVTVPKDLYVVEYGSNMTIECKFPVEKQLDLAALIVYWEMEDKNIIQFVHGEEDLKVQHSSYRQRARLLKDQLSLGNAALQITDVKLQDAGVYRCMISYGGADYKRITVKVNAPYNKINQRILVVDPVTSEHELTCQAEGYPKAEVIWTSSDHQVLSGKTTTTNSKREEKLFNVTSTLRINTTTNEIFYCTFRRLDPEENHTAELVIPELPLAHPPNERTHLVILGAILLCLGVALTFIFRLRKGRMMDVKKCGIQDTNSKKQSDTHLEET

PD-L1 (D8T4X)-647 antibody: in assay [1], the Median (APC) is 8120. In assay [2], Necitumumab Fab came in with a Kd of 6.1 nM.

The molecule Isotype Control-647 (antibody) yielded a Median (APC) in assay [3] of 480.

B1: Matuzumab Fab (Fab, INN chains, looked up, V domains shown)
VH: QVQLVQSGAEVKKPGASVKVSCKASGYTFTSHWMHWVRQAPGQGLEWIGEFNPSNGRTNYNEKFKSKATMTVDTSTNTAYMELSSLRSEDTAVYYCASRDYDYDGRYFDYWGQGTLVTVSS
VL: DIQMTQSPSSLSASVGDRVTITCSASSSVTYMYWYQQKPGKAPKLLIYDTSNLASGVPSRFSGSGSGTDYTFTISSLQPEDIATYYCQQWSSHIFTFGQGTKVEIK
modifications: Fab
In assay [2], B1 registered a Kd of 113 nM.
